The target of assay [1] is T1, Recombinant human laminin 511 (Biolamina) (human, UniProt O15230 36-3695; P07942 22-1786; P11047 34-1609).
T1 construct: Trimer α5β1γ1, bought; negative control
In words: SPR (Biacore T200). (In general: In SPR one partner is held on a chip, and binding of the other changes the refractive index at the surface.)

Assay [2] deals with T2, Recombinant human laminin-α4 (R&D systems) (human, UniProt Q16363-2 826-1816).
T2 construct: also called laminin 4A chain; laminin A4 (α4) chain
T2 sequence (looked up): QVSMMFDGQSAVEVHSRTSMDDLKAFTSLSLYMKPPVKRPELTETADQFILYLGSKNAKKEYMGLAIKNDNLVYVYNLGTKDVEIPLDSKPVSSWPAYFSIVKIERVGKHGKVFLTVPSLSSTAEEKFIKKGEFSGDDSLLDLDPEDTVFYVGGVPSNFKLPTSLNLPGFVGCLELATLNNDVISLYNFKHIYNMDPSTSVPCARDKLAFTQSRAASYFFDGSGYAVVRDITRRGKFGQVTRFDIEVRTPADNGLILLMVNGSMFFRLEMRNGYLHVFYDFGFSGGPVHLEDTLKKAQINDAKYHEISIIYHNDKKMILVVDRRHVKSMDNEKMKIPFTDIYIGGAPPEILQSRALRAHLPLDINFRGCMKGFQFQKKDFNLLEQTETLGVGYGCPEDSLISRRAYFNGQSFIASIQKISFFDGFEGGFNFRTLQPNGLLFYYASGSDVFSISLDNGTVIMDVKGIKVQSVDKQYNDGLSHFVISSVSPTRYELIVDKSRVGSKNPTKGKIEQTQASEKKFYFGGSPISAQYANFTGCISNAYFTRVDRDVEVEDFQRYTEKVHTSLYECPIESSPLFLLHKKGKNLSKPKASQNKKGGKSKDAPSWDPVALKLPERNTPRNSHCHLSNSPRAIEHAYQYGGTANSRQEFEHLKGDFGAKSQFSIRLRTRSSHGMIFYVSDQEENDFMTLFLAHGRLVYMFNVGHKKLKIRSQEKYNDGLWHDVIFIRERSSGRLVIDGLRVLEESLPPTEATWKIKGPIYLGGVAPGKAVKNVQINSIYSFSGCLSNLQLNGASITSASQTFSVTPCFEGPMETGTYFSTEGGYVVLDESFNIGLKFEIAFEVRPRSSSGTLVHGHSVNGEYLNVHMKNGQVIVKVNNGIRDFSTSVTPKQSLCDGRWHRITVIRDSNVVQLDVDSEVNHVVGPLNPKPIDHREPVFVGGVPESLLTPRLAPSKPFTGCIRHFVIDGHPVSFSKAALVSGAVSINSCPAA
In words: SPR (Biacore T200), MCAM IgG1-2A captured by anti-Fc IgG, laminin in solution. The method, then: The binding affinity of the human laminin-α4 to human MCAM IgG1-2A was measured by Surface Plasmon Resonance on a Biacore T200 machine. Human Fc-specific F(ab′)₂ IgG (Jackson Laboratories) was immobilized on a CM5 chip using amine coupling. The four flow cells of the CM5 chips dextran surface are activated by a 7 min injection of freshly prepared 1:1 50 mM NHS: EDC at a flow rate of 5 μl/min. 70 μl IgG solution (pH 4.5) was injected for 3 min to a density of up to 3 000 RU. The coupling is then blocked by a 7 min injection of 1M ethanolamine to deactivate residual reactive sites. Recombinant human Fc-tagged MCAM IgG1-2A in degassed and filtered HBS-P buffer containing 12 mg/ml BSA and 12 mg/ml carboxy-methylated dextran sodium salt was captured by anti-Fc IgG to a capture level 1560 RU. Recombinant human Fc-tagged MCAM IgG1-2A was centrifuged at 14 000 rpm for 5 min at 4° C. before injection for 20 min at a flow rate of 5 μl/min over the anti-Fc IgG containing surface. Flow cell 1 was left free of IgG to serve as a control surface. One flow cell was used to capture recombinant human IgG1 Fc (R&D systems) to serve as a negative control. […] Buffer injections served as negative control. Data evaluation: Data from the buffer injections and the control surface were subtracted to remove artifacts. […]

The target of assay [3] is T3, Murine MCAM domain 1 (Ig1) with human IgG Fc tag (mouse, UniProt Q8R2Y2 24-131, limits assumed).
T3 construct: domain: domain 1 (Ig1); also called MCAM Fc domain 1; not shown: human IgG Fc tag
T3 sequence (looked up): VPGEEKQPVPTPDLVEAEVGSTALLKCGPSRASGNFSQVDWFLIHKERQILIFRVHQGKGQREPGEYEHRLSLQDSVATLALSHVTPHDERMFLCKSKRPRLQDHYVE
Kind of assay: ForteBio Octet Red, domains on anti-human IgG Fc biosensors. An excerpt:
(§1) The following protocol was used: ForteBio Domain Mapping Protocol. ForteBio anti-human IgG Fc biosensors were used to immobilize various mouse MCAMhFc domains including full length mouse MCAMhFc protein on to biosensor surface. These sensors were dipped into either clone 15 or 17 MCAM specific antibody for detection of binding to these domains or full length protein. After loading these samples into a black 96 well plate, the Octet Red was programmed as follows: 60 seconds for baseline #1; 180 seconds for loading various domains; 60 seconds for baseline #2; 180 seconds for association of antibody to domain; and 240 seconds for dissociation of antibody from domain.
(In general: Biolayer interferometry detects binding as a change in optical thickness at a sensor tip.)

Assay [4] deals with T4, Murine MCAM domain 1 and 2 (Ig1-2A) with human IgG Fc tag (mouse, UniProt Q8R2Y2 24-244, limits assumed).
T4 construct: domain: domain 1 and 2 (Ig1-2A); also called MCAM Fc domains 1 and 2; not shown: human IgG Fc tag
T4 sequence (looked up): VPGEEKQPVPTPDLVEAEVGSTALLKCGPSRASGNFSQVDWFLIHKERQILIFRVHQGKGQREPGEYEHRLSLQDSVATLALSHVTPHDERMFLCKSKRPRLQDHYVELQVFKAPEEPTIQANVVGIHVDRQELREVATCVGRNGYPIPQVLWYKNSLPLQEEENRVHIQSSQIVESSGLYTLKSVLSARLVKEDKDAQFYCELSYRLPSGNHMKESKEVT
The description is as above.
Source text: as §1

Assay [5] addresses T5, mouse MCAM (full length, on transfected CHO cells) (mouse, UniProt Q8R2Y2 24-648).
T5 construct: whole, on cells; also called murine MCAM; mouse MCAM transfected CHO cells
T5 sequence (looked up): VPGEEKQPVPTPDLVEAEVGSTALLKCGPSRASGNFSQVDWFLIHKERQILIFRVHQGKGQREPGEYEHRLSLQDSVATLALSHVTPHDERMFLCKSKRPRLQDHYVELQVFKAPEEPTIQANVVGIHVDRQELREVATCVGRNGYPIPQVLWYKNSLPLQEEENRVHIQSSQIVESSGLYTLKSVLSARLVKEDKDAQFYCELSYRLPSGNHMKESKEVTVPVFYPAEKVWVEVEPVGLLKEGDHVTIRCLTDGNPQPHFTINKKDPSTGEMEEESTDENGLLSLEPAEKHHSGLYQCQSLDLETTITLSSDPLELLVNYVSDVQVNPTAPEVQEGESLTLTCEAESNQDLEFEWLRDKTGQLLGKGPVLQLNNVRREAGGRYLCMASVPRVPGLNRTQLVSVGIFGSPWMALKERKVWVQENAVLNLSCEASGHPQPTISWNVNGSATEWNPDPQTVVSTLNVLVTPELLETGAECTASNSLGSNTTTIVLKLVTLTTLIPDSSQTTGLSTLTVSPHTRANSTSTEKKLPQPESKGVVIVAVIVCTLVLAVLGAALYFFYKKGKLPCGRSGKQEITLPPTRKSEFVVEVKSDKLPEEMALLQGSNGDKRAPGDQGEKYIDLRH
Kind of assay: flow cytometry on MCAM transfected cells mixed with CFSE-labelled untransfected cells. The procedure: (§2) MCAM-Fc was generated by fusing the extracellular domain of murine MCAM to human IgG and produced in CHO cells using standard techniques. Lou/M rats were immunized with 100 μg of MCAM-Fc protein in CFA (1:1 volume). Rats were boosted two times at two week intervals with MCAM-Fc protein in incomplete Freund's adjuvant (IFA) (1:1 volume). Hybridomas were generated from immunized rats using standard protocols and clones were selected by Clonepix. CHO cells were transfected with the full length murine MCAM gene and selected for stable expression using neomycin and standard techniques. Parental CHO cells (MCAM negative) were fluorescently labeled with carboxyfluorescein succinimidyl ester (CFSE) using standard techniques and mixed at a 1:1 ratio with unlabeled MCAM transfected CHO cells. Hybridoma supernatants were incubated with this mixture of cells for 30 minutes and binding of potential MCAM specific antibodies was detected with a fluorescently labeled anti-rat secondary antibody (Jackson Immuno) by flow cytometry.
(§3) Monoclonal antibodies against mouse MCAM were generated as described in Materials and Methods above. The specific binding between the monoclonal antibody and MCAM was confirmed by assessing the monoclonal antibody's ability to bind to cells transfected with either mouse or human MCAM. For this, untransfected cells were labeled with carboxyfluorescein succinimidyl ester (CFSE) and mixed with unlabeled MCAM transfected cells. Untransfected cells (in blue) could therefore be differentiated.

The target of assay [6] is T6, human MCAM (on transfected cells) (human, UniProt P43121 24-646).
T6 construct: Cells transfected with human MCAM; also called CD146; MUC18
T6 chain: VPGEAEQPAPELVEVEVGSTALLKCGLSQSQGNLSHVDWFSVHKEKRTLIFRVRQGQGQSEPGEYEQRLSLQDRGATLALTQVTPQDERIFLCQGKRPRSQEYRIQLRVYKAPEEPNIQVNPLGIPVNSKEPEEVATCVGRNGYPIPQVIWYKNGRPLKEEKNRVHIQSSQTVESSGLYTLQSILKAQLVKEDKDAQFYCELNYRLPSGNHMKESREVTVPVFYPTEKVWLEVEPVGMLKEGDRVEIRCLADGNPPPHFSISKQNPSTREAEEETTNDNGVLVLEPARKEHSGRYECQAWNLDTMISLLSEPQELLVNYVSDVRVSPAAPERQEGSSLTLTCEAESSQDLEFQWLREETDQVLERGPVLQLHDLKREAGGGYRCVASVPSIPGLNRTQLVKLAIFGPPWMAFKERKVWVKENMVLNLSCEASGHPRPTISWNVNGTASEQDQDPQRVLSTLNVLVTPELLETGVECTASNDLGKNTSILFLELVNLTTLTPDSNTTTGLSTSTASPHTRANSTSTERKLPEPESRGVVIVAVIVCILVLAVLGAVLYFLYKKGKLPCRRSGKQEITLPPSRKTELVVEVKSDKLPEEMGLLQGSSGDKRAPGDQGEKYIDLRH
The assay is described as above. The procedure: as §2, §3

Another assay addresses T7, Ig2 domain (mouse, UniProt Q8R2Y2).
T7 construct: immunoglobulin domain 2 alone; also called Murine MCAM domain 2 (Ig2)
T7 sequence (Fc fusion chain, looked up): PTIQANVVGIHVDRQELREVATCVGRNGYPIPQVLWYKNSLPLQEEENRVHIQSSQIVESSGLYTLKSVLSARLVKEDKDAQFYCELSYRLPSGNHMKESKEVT
In words: ForteBio Octet Red, anti-human IgG Fc biosensor loaded with the Ig2 domain hFc protein, dipped into clone 17 or SP2 media.
Source text: as §1
(§4) For FIG. 10A-B, clones 15 and 17 were tested against the following protein samples (all have human IgG Fc tag): […]

For assay [7], the target named is T8, murine MCAM-Fc (extracellular domain of murine MCAM fused to human IgG) (mouse, UniProt Q8R2Y2 24-563).
T8 construct: extracellular domain; Produced in CHO cells; also called mouse MCAM-Fc protein; full length mouse MCAMhFc protein; not shown: human IgG (Fc) part
T8 sequence (looked up): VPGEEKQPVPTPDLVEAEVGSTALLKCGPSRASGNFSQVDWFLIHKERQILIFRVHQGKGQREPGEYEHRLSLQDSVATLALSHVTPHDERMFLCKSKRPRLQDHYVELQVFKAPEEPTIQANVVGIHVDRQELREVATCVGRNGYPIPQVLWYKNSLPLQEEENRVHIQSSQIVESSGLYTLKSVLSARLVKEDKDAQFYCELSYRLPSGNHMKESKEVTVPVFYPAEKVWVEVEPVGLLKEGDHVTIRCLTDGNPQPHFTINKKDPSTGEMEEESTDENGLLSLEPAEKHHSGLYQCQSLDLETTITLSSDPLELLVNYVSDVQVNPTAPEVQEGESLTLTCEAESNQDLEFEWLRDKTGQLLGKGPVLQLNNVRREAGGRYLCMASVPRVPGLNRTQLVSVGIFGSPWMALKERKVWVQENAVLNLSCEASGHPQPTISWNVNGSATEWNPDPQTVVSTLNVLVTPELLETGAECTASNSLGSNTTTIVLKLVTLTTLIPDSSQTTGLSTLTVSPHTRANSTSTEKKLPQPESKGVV
In words: ForteBio Octet Red, anti-human IgG Fc biosensor loaded with mouse MCAMhFc (5 ug/ml), dipped into clone 17 (5 ug/ml) or SP2 media.
Source text: as §1, §4

B1: Recombinant human Fc-tagged MCAM IgG1-2A (Fc fusion)
chain: PRVAGVPGEAEQPAPELVEVEVGSTALLKCGLSQSQGNLSHVDWFSVHKEKRTLIFRVRQGQGQSEPGEYEQRLSLQDRGATLALTQVTPQDERIFLCQGKRPRSQEYRIQLRVYKAPEEPNIQVNPLGIPVNSKEPEEVATCVGRNGYPIPQVIWYKNGRPLKEEKNRVHIQSSQTVESSGLYTLQSILKAQLVKEDKDAQFYCELNYRLPSGNHMKESREVT
notes: also called human MCAM IgG1-2A; MCAM Fc domains 1 and 2; not shown: human Fc tag
Take B1: the binding result in assay [1] is recorded as “no binding (tested: 5-175 nM)”. The Kd (usually a measure of binding affinity in units of concentration) in assay [2] is 60 nM.

B2: clone 17 monoclonal antibody (rat anti-MCAM) (antibody, V domains shown)
VH: EVQLVESGGGLVQPGRSLKLSCAASGFTFSNYYMAWVRQAPTKGLEWVASISFEGNRNHYGDSVKGRITISRDNAKSTLYLQMTSLRPEDTATYYCARHRGYSTNFYHDVLDAWGQGALVTVSS
VL: DVQMTQSPSYLATSPGESVSISCKASKNIDTYLAWYQEKPGKTNKLLIYSGSTLQSGTPSRFSGSGSGTDFTLTIRNLESEDFAVYYCQQHNEYPLTFGSGTKLEIKR
notes: Rat monoclonal from a hybridoma (Lou/M rats immunized with murine MCAM-Fc); also called anti-MCAM clone 17
As to B2, the binding result in assay [3] is on record as “binds”; in assay [4], “binds”; in assay [5], “binds”; in assay [6] it was “binds”; in the assay with Ig2 domain, “no binding (tested: 5 ug/ml)”; in assay [7], “binds”.

The record behind these values is patent publication US20140314744A1 (NEOTOPE BIOSCIENCES, published 2014).
